According to publication PMC12483538:

Target: SenDRT9 reverse transcriptase (SenRT), affinity tag cleaved, in complex with its ncRNA (Salmonella enterica)
Test: cryo-EM structure; 2.5 uM tag-cleaved DRT9 RT-ncRNA complex (hexamer) on Quantifoil grids; D3 symmetry imposed, 2.59 A

Substance “SenDRT9 reverse transcriptase (SenRT), affinity tag cleaved, in complex with its ncRNA (enzyme)” has a stoichiometry N of 6.
